Results taken from patent US20180194850A1 (GENERAL HOSPITAL, published 2018).

Tests used:
[1] = target: T1, S03933; assay: linear peptide ELISA (absorbance); Affinity +
T1 sequence (peptide): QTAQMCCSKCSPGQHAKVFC

[2] = target: T2, EGCRL2…; assay: CLIPS peptide-array ELISA [Continued]
T2 sequence (peptide, 2 = Cys(Acm)): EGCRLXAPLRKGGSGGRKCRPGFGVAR

[3] = target: T3, peptide fragment defined by residues 130-149 of SEQ ID NO: 7 within human TNFR2 (KQEGCRLCAPLRKCRPGFGV) (human); assay: comparison of affinity for linear peptides; assay not named in the sentence (linear peptide ELISA, FIG. 13B)
T3 construct: also called linear peptide containing the KCRPG motif
T3 peptide: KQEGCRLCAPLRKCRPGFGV
Experimental: ELISA was also used to determine linear epitopes present on the extracellular surface of TNFR2.
Linear peptides corresponding to various regions within the TNFR2 primary sequence were purchased from GenScript (Piscataway, N.J.), diluted in coating buffer and placed on Immulon 4HBX Flat Bottom Microtiter Plates (Thermo Scientific) at a concentration of 1 μg/well. Primary TNFR2 antagonistic antibodies (0.1 μg/well) were incubated with substrates. Secondary antibodies against rodent IgG were used to detect the primary antibodies. Absorbance was measured using the SPECTRAMAX® 190 Absorbance Plate Reader and analyzed with SoftMax Pro 6.3 (Molecular Devices).

Reading [1]: 0.1
Raw luminescence data [2]: 358
fold greater affinity than for the peptide of residues 48-67 (…, SEQ ID NO: 18) [3]: 40 fold
B1: antagonistic TNFR2 antibody TNFRAB1 (antibody, V domains shown)
VH: EVQLQESGGGLVKPGGSLKLSCAASGFTFSSYVMSWVRQTPEKRLEWVATISSGGSYTYYPDSVKGRFTISRDNAKNTLYLQMSSLRSEDTAMYYCARQRVDGYSSYWYFDVWGAGTAVTVSS
VL: DIVLTQSPAIMSASPGEKVTITCSASSSVYYMYWFQQKPGTSPKLWIYSTSNLASGVPVRFSGSGSGTSYSLTISRMEAEDAATYYCQQRRNYPYTFGGGTKLEIKR
notes: Murine monoclonal IgG; For SPR the antibody was biotinylated and captured on streptavidin; also called TNFR2 antagonist 1
